We go through six substances from article doi:10.1101/2025.01.13.632804.

The target of one assay is GST-FKBP12 (mouse) (UniProt P26883). Kind of assay: pull-down.
Assay [1] deals with Porcine brain tubulin (growing microtubules) (porcine). Kind of assay: TIRF microscopy of GFP-CRMP2A on growing microtubules in vitro.

Chain of UniProt P26883 (P26883 whole entry): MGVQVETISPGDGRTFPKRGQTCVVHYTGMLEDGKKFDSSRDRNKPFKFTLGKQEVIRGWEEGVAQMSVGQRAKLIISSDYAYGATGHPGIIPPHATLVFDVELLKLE

“FLAG-CRMP2A S27A, expressed under high Cdk5 activity (natural protein)”: the pull-down signal relative to WT CRMP2A in the presence of Cdk5 with GST-FKBP12 (mouse) was determined as 2.57.
Still for that read-out and setting: then “FLAG-CRMP2A S27A, S623A, expressed under high Cdk5 activity (natural protein)”, with 2.59.
On the same count and under the same terms, then “FLAG-CRMP2A S623A, expressed under high Cdk5 activity (natural protein)”, with 1.75.
Take “FLAG-CRMP2AΔ604 (CRMP2A 1-604) (domain or fragment)”: in the assay with GST-FKBP12 (mouse), the pull-down signal normalized to the input, relative to CRMP2A was found to be 2.82.
Regarding “FLAG-tagged GFP-CRMP2A (natural protein)”, in assay [1], the length of the GFP-positive ends was 0.297 um, the length of the GFP-positive ends (with FKBP12) amounted to 0.133 um, the persistence of GFP signal amounted to 33.1 s and the persistence of GFP signal (with FKBP12) stood at 18.7 s.
“Cdk5-phosphorylated FLAG-CRMP2A (natural protein)” registered a pull-down signal normalized to the input, relative to CRMP2A without Cdk5 in the assay with GST-FKBP12 (mouse) of 0.39.
